The text below walks through data of patent publication EP3443010B1 (Ose Immunotherapeutics, dated 2024).

Experiment [1] deals with T1, Recombinant hSIRPb-His (Antibodies-online, reference ABIN3077231) (human, UniProt Q5TFQ8 30-371).
T1 construct: also called human SIRPb recombinant protein (Blitz); not shown: His tag (histidine tail)
Put plainly: Blitz (BLI), SIRPb-His on Ni-NTA biosensor, antibody at 20 ug/mL.

Experiment [2] addresses T2, SIRPg on peripheral human CD3+ T cells (human, UniProt Q9P1W8 29-387).
T2 construct: whole, on cells; also called T cells that are known to express SIRPγ; human T cells
Kind of experiment: flow cytometry on human CD3+ T cells, percent positive cells. (Flow cytometry measures light scatter and fluorescence of single cells or particles in a stream.)

The target of experiment [3] is T3, Recombinant hSIRPg-His (Sino Biologicals, reference 11828-H08H) (human, UniProt Q9P1W8 29-360).
T3 construct: also called human SIRPg recombinant protein; not shown: His tag (histidine tail)
Put plainly: Blitz (BLI), SIRPg-His on Ni-NTA biosensor, antibody at 20 ug/mL.

Experiment [4] addresses T4, recombinant hSIRPa (Sino Biologicals, reference 10975-H08H) (human, UniProt P78324 31-370).
T4 construct: A different catalogue item from m21; also called SIRPa-His (ELISA with the mouse antibodies)
Put plainly: ELISA, hSIRPa (Sino 10975-H08H) coated at 0.5 ug/ml, anti-mouse Fc detection.

Where “and” joins values, the source holds several entries; their conditions need not be identical. Identical values can stand only once.

T1 sequence (Q5TFQ8 30-371): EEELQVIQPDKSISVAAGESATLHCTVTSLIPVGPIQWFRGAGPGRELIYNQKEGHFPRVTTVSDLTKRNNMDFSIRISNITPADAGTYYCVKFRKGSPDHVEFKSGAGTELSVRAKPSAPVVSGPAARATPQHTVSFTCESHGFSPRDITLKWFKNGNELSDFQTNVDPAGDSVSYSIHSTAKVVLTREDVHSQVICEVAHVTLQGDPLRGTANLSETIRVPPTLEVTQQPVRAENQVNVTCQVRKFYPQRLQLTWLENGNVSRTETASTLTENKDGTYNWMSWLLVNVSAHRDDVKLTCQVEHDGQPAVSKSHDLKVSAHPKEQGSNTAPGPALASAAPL
T4 sequence (P78324 other isoform, or with tags, fused parts or gaps H08H H08H): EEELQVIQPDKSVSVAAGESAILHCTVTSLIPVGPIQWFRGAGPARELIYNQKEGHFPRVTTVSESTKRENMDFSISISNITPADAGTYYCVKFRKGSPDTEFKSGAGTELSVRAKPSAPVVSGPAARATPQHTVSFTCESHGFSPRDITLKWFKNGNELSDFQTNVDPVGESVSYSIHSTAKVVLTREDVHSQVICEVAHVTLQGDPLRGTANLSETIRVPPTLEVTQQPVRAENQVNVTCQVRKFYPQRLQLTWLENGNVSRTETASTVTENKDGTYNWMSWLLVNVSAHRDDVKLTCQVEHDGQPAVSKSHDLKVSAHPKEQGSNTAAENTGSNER
T2 sequence (Q9P1W8 29-387): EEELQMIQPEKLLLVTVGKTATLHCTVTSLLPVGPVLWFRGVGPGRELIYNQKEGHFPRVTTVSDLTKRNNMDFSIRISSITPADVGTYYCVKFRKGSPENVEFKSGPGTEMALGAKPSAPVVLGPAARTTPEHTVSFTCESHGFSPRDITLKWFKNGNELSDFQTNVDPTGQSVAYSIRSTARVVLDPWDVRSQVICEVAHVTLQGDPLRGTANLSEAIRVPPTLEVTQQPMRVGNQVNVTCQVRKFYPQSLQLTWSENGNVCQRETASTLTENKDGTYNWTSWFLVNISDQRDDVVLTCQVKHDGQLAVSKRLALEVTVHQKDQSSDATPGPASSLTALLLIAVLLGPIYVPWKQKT
T3 sequence (Q9P1W8 29-360 limits assumed): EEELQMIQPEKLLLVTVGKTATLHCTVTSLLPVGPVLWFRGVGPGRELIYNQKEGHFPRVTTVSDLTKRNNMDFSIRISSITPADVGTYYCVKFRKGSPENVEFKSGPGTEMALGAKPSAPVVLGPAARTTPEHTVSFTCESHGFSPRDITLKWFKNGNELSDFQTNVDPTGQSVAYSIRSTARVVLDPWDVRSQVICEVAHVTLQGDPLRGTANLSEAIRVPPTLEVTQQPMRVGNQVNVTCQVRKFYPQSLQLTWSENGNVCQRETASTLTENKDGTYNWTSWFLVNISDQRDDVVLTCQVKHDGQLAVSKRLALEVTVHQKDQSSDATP

B1: chimeric mouse/human 18D5 antibody (antibody, human IgG4 S228P, kappa)
heavy: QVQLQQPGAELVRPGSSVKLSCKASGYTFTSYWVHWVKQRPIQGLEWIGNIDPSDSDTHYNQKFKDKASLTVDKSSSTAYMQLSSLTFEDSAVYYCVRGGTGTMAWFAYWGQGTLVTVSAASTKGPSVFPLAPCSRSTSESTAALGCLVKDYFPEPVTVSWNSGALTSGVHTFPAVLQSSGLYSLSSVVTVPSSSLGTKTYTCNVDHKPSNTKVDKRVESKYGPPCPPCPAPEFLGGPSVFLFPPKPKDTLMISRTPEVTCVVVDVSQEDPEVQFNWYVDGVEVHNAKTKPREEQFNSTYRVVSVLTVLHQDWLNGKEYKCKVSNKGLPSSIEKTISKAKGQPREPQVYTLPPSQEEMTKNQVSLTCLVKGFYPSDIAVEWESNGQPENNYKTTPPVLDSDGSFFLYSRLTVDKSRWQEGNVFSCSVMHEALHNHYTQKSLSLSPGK
light: DVVMTQTPLSLPVSLGDQASISCRSSQSLVHSYGNTYLYWYLQKPGQSPKLLIYRVSNRFSGVPDRFSGSGSGTDFTLKISRVEAEDLGVYFCFQGTHVPYTFGSGTKLEIKRTVAAPSVFIFPPSDEQLKSGTASVVCLLNNFYPREAKVQWKVDNALQSGNSQESVTEQDSKDSTYSLSSTLTLSKADYEKHKVYACEVTHQGLSSPVTKSFNRGEC
notes: also called chimeric 18D5; the chimeric antibody
In the case of B1, the binding result in experiment [1] is “binds”; in experiment [2], “no binding (tested: 10 micrograms/ml)”.

B2: HFLA (antibody, human IgG4 S228P, kappa, V domains shown)
VH: EVQLVQSGAEVKKPGESLRISCKASGYSFTSYWVHWVRQMPGKGLEWMGNIDPSDSDTHYSPSFQGHVTLSVDKSISTAYLQLSSLKASDTAMYYCVRGGTGTMAYFAYWGQGTLVTVSS
VL: DVVMTQSPLSLPVTLGQPASISCRSSQSLVHSYGNTYLYWYQQRPGQSPRLLIYRVSNRFSGVPDRFSGSGSGTDFTLKISRVEAEDVGVYFCFQGTHVPYTFGGGTKVEIKR
notes: also called humanized 18D5 variant HFLA
As to B2, the binding result in experiment [1] is reported as “binds”.

B3: HFLB (antibody, human IgG4 S228P, kappa, V domains shown)
VH: EVQLVQSGAEVKKPGESLRISCKASGYSFTSYWVHWVRQMPGKGLEWMGNIDPSDSDTHYSPSFQGHVTLSVDKSISTAYLQLSSLKASDTAMYYCVRGGTGTMAYFAYWGQGTLVTVSS
VL: DVVMTQSPLSLPVTLGQPASISCRSSQSLVHSYGNTYLYWFQQRPGQSPRLLIYRVSNRFSGVPDRFSGSGSGTDFTLKISRVEAEDVGVYYCFQGTHVPYTFGGGTKVEIKR
notes: also called humanized 18D5 variant HFLB
In general, Kd refers to the constant that tells how readily two partners part at equilibrium. For B3, in experiment [3], the equilibrium dissociation constant (Kd) was 104 nM. Moreover, the binding result in experiment [1] is given as “binds”.

B4: HEFLB (antibody, human IgG4 S228P, kappa, V domains shown)
VH: EVQLVQSGAEVKKPGESLRISCKASGYSFTSYWVHWVRQMPGKGLEWMGNIDPSDSDTHYSPSFQGHVTLSVDKSISTAYLQLSSLKASDTAMYYCVRGGTGTLAYFAYWGQGTLVTVSS
VL: DVVMTQSPLSLPVTLGQPASISCRSSQSLVHSYGNTYLYWFQQRPGQSPRLLIYRVSNRFSGVPDRFSGSGSGTDFTLKISRVEAEDVGVYYCFQGTHVPYTFGGGTKVEIKR
notes: also called humanized 18D5 variant HEFLB; anti-SIRPa HEFLB
As for B4, in experiment [1], the binding result is on record as “binds”.

B5: HEFLA (antibody, human IgG4 S228P, kappa, V domains shown)
VH: EVQLVQSGAEVKKPGESLRISCKASGYSFTSYWVHWVRQMPGKGLEWMGNIDPSDSDTHYSPSFQGHVTLSVDKSISTAYLQLSSLKASDTAMYYCVRGGTGTLAYFAYWGQGTLVTVSS
VL: DVVMTQSPLSLPVTLGQPASISCRSSQSLVHSYGNTYLYWYQQRPGQSPRLLIYRVSNRFSGVPDRFSGSGSGTDFTLKISRVEAEDVGVYFCFQGTHVPYTFGGGTKVEIKR
notes: also called humanized 18D5 variant HEFLA
For B5, the binding result in experiment [1] is recorded as “binds”.

B6: mouse antibody 18D5 (antibody, mouse IgG2b, kappa)
heavy: QVQLQQPGAELVRPGSSVKLSCKASGYTFTSYWVHWVKQRPIQGLEWIGNIDPSDSDTHYNQKFKDKASLTVDKSSSTAYMQLSSLTFEDSAVYYCVRGGTGTMAWFAYWGQGTLVTVSAAKTTPPSVYPLAPGCGDTTGSSVTLGCLVKGYFPESVTVTWNSGSLSSSVHTFPALLQSGLYTMSSSVTVPSSTWPSQTVTCSVAHPASSTTVDKKLEPSGPISTINPCPPCKECHKCPAPNLEGGPSVFIFPPNIKDVLMISLTPKVTCVVVDVSEDDPDVQISWFVNNVEVHTAQTQTHREDYNSTIRVVSTLPIQHQDWMSGKEFKCKVNNKDLPSPIERTISKIKGLVRAPQVYILPPPAEQLSRKDVSLTCLVVGFNPGDISVEWTSNGHTEENYKDTAPVLDSDGSYFIYSKLNMKTSKWEKTDSFSCNVRHEGLKNYYLKKTISRSPGK
light: DVVMTQTPLSLPVSLGDQASISCRSSQSLVHSYGNTYLYWYLQKPGQSPKLLIYRVSNRFSGVPDRFSGSGSGTDFTLKISRVEAEDLGVYFCFQGTHVPYTFGSGTKLEIKRADAAPTVSIFPPSSEQLTSGGASVVCFLNNFYPKDINVKWKIDGSERQNGVLNSWTDQDSKDSTYSMSSTLTLTKDEYERHNSYTCEATHKTSTSPIVKSFNRNEC
notes: also called m18D5; m18D5 clone
Usually EC50 stands for the concentration that produces a half-maximal response. With B6, the half-maximal effective concentration (EC50) in experiment [4] is 0.06 nM and 0.009 µg/mL.
